For one substance, Binding ability (relative to positive control antibody) results are on record in US20230113734A1.

This experiment deals with SARS-CoV-2 S protein (spike protein) (SARS-CoV-2) (UniProt P0DTC2). The experiment in a line: ELISA, S proteins on plate (the reference itself).

Regarding positive control antibody (CR3022), the Binding ability (relative to positive control antibody) was 1.
